One assay deals with RsLOV (Cereibacter sphaeroides, UniProt M1E1F8). The experiment in a line: X-ray crystallography. Type of assay: binding. The settings on record: dark state, noncovalent; 1.9 Å.
For assay [1], the target named is A138Y RsLOV variant (Rhodobacter sphaeroides ATCC 17025). As to the kind of experiment: SEC.
Assay [2] addresses LOV domain protein of Rhodobacter sphaeroides (RsLOV), wild type (Rhodobacter sphaeroides ATCC 17025). The experiment in a line: SEC.

Consider `Cc1cc2nc3c(=O)[nH]c(=O)nc-3n(C[C@H](O)[C@H](O)[C@H](O)COP(=O)(O)O)c2cc1C` [FMN], for which, at RsLOV, the X-ray crystallography result is “The Val32 side chain does not extend as far into the FMN pocket as Leu”. Take A138Y RsLOV variant (natural protein): the stoichiometry N in assay [1] was determined as 2. “LOV domain protein of Rhodobacter sphaeroides (RsLOV), wild type (natural protein)” had a stoichiometry N in assay [2] of 2.

The values are drawn from publication PMC3582384 (Biochemistry, 2013).
